Assay results taken from paper PMC2174084 (The Journal of Cell Biology, 2002).
No end group written: not given here.

Target: rabbit skeletal muscle actin, polymerized (F-actin) (rabbit, UniProt P68135 1-377)
Assay: co-sedimentation

LYAVGGHDGPMVRRSVEAYDCETNSWRSVADMSYCRRNAGVVAHDGL (domain or fragment, cysteine pairing not given here; also: biotin-labeled, place not given here) [Kelch repeat 5 (L594-L640)]
binding result: binds

LYAVGGHDGPMVRRSVEAYDCETNSWRSVADMSDCRRNAGVVAHDGL (domain or fragment, cysteine pairing not given here; also: biotin-labeled, place not given here) [Kelch repeat 5 (L594-[Y627D]-L640)]
percent of the protein sedimenting with actin: < 50%

LYAVGGHDGPMVRRSVEAYDCETNSWRSVADMSACRRNAGVVAHDGL (domain or fragment, cysteine pairing not given here; also: biotin-labeled, place not given here) [Kelch repeat 5 (L594-[Y627A]-L640)]
percent of the protein sedimenting with actin: 100%

LYAVGGHDGPMVRRSVEAYDCETNSWRSVADMSFCRRNAGVVAHDGL (domain or fragment, cysteine pairing not given here; also: biotin-labeled, place not given here) [Kelch repeat 5 (L594-[Y627F]-L640)]
percent of the protein sedimenting with actin: 100%
